Reference: patent CN113754773A (SUNSHINE GUOJIAN PHARMACEUTICAL SHANGHAI CO LTD, dated 2021)

B1: anti-PD1×PDL1 BsAb (bispecific antibody, human IgG1, kappa)
heavy: not shown
light: EIVLTQSPDFLSVTPKEKVTITCRASQSIGTTIHWYQQKPDQSPKLLIKYASQSFSGVPSRFSGSGSGTDFTLTINSVEAEDAATYYCQQSNSWPLTFGAGTKLEIKRTVAAPSVFIFPPSDEQLKSGTASVVCLLNNFYPREAKVQWKVDNALQSGNSQESVTEQDSKDSTYSLSSTLTLSKADYEKHKVYACEVTHQGLSSPVTKSFNRGEC
notes: also called 抗PD1×PDL1双抗; 抗PD1×PDL1双特异性抗体
B2: 抗PD-L1单抗 (M8) (antibody, human IgG1, kappa, V domains shown)
VH: QVQLQQSGGGLVKPSQSLSLTCTVSGFSLTSYGVHWVRQPPGKGLEWIGLIWSGGGTDYNPSLKSRLTISRDTSKNQVSFKISSLTAADTAVYYCARQLGLRAMDYWGQGTSVTVSS
VL: EIVLTQSPDFLSVTPKEKVTITCRASQSIGTTIHWYQQKPDQSPKLLIKYASQSFSGVPSRFSGSGSGTDFTLTINSVEAEDAATYYCQQSNSWPLTFGAGTKLEIKR
notes: also called 抗人PD-L1单抗M8; anti-PD-L1 mAb

Assays:
PD-L1 on N87-PDL1 cells = molecular target: T1, PD-L1 on N87-PDL1 cells (UniProt Q9NZQ7 19-290, limits assumed); test: flow cytometry on N87-PDL1 cells, goat anti-human IgG-FITC
T1 construct: whole, on cells; also called N87-PDL1细胞

[1] = molecular target: PD-1 on PD1 effector cells (Promega PD-1/PD-L1 Blockade Bioassay) (UniProt Q15116 25-288, limits assumed); test: cell-based or functional assay
[2] = molecular target: PD-L1 on PD-L1 aAPC/CHO-K1 cells (Promega PD-1/PD-L1 Blockade Bioassay) (UniProt Q9NZQ7 19-290, limits assumed); test: cell-based or functional assay
PD1-ECD-hFc蛋白 [3] = molecular target: T2, PD1-ECD-hFc蛋白 (human, UniProt Q15116 25-170); test: ELISA, PD1-ECD-hFc coated, HRP mouse anti-human Fab
T2 construct: extracellular domain; Made in house in HEK-293E cells; also called PD-1抗原; not shown: hFc at the C-terminus

[4] = molecular target: T3, PD-1 on CHO stable cells (PD-1/CHO) (UniProt Q15116 25-288, limits assumed); test: flow cytometry on CHO cells stably expressing PD-1, goat anti-human IgG-FITC
T3 construct: whole, on cells; also called 细胞表面表达PD-1的CHO稳转细胞; PD-1/CHO细胞

PDL1-ECD-His蛋白 = molecular target: T4, PDL1-ECD-His蛋白 (human, UniProt Q9NZQ7 19-238); test: ELISA, PDL1-ECD-His coated, HRP mouse anti-human Fab
T4 construct: extracellular domain; Made in house in HEK-293E cells; also called PD-L1抗原

PD1-ECD-hFc蛋白 [5] = molecular target: T2, PD1-ECD-hFc蛋白; test: bridging ELISA: PD1-ECD-hFc coated, antibody titrated, then PDL1-ECD-His at 1000ng/ml, read with HRP-anti-His (both antigens bound at once)

T4 sequence (Q9NZQ7 other isoform, or with tags, fused parts or gaps): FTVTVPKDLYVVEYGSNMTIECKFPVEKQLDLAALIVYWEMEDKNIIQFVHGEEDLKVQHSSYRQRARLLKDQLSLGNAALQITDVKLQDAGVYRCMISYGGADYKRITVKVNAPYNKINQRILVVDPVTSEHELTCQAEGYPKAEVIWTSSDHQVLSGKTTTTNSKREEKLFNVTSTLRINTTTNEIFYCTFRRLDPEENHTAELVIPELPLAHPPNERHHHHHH
Sequence of PD-L1 on PD-L1 aAPC/CHO-K1 cells (Promega PD-1/PD-L1 Blockade Bioassay) (Q9NZQ7 19-290 limits assumed): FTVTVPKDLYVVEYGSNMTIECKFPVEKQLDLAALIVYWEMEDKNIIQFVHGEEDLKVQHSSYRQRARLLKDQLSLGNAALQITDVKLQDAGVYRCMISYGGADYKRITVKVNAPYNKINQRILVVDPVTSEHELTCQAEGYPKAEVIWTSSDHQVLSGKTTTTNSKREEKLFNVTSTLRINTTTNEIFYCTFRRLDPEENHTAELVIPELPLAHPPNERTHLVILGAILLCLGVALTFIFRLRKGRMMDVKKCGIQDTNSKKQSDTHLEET
T1 sequence (Q9NZQ7 19-290 limits assumed): as above
T2 sequence (Q15116 25-170): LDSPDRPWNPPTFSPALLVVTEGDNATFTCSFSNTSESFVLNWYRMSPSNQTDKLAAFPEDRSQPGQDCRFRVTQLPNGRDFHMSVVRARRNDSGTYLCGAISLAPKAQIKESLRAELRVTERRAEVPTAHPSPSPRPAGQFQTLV
Sequence of PD-1 on PD1 effector cells (Promega PD-1/PD-L1 Blockade Bioassay) (Q15116 25-288 limits assumed): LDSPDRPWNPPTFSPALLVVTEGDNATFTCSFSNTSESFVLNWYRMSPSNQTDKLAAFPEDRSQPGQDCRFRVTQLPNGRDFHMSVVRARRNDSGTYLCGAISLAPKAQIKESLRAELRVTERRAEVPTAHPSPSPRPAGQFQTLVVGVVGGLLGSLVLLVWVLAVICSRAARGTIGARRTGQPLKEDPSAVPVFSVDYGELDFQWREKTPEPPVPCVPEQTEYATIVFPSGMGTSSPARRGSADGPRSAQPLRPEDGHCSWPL
T3 sequence (Q15116 25-288 limits assumed): as above

Binder | EC50 (PD-L1 on N87-PDL1 cells) [nM] | IC50, luminescence (PD-1/PD-L1 Blockade Bioassay) [1] [nM] | IC50, luminescence (PD-1/PD-L1 Blockade Bioassay) [2] [nM] | EC50 (PD1-ECD-hFc蛋白 [3]) [nM] | EC50 [4] [nM] | EC50 (PDL1-ECD-His蛋白) [nM] | EC50 (PD1-ECD-hFc蛋白 [5]) [nM]
B1 | 0.15 | 0.24 | 0.24 | 0.3 | 1.43 | 0.29 | 0.36
B2 | 0.11 | – | 0.42 | – | – | 0.27 | –
